These results are taken from patent US20220010021A1 (Sanofi, published 2022).

Positions count from the first letter of the chain named. Names may count otherwise.

Assay [1] concerns the target human FGFR1c + KLB receptor complex on HEK293 iLite FGF21 reporter cells (human, UniProt P11362 22-822; Q86Z14 1-1044). Briefly: cell-based or functional assay.
Assay [2] deals with cell surface receptor composed of FGFR1c and co-receptor beta-Klotho (KLB) (human, UniProt P11362 22-822; Q86Z14 1-1044). Briefly: cell-based or functional assay.
Sequence of cell surface receptor composed of FGFR1c and co-receptor beta-Klotho (KLB) (P11362 22-822, chain 1 of 2): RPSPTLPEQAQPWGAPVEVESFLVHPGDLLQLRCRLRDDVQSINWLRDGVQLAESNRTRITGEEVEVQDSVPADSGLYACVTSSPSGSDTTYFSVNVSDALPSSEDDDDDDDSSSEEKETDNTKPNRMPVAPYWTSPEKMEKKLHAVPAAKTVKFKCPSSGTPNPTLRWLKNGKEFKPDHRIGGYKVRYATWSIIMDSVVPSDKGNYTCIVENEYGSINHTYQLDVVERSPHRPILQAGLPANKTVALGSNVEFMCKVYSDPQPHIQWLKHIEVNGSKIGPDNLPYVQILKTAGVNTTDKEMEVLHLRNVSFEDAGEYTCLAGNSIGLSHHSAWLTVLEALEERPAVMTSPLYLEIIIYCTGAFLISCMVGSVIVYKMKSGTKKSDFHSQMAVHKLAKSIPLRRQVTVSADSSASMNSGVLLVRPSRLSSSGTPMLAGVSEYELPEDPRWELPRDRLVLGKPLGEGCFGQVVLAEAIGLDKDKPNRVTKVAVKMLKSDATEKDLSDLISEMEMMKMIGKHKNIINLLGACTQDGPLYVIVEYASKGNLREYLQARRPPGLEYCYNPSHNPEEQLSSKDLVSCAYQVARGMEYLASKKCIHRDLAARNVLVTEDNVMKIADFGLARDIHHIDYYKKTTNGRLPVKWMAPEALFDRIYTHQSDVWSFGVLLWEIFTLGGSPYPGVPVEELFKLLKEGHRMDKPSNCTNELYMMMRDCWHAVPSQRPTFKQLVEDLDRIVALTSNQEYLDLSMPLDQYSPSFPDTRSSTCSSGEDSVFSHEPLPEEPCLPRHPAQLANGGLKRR
Sequence of cell surface receptor composed of FGFR1c and co-receptor beta-Klotho (KLB) (Q86Z14 whole entry, chain 2 of 2): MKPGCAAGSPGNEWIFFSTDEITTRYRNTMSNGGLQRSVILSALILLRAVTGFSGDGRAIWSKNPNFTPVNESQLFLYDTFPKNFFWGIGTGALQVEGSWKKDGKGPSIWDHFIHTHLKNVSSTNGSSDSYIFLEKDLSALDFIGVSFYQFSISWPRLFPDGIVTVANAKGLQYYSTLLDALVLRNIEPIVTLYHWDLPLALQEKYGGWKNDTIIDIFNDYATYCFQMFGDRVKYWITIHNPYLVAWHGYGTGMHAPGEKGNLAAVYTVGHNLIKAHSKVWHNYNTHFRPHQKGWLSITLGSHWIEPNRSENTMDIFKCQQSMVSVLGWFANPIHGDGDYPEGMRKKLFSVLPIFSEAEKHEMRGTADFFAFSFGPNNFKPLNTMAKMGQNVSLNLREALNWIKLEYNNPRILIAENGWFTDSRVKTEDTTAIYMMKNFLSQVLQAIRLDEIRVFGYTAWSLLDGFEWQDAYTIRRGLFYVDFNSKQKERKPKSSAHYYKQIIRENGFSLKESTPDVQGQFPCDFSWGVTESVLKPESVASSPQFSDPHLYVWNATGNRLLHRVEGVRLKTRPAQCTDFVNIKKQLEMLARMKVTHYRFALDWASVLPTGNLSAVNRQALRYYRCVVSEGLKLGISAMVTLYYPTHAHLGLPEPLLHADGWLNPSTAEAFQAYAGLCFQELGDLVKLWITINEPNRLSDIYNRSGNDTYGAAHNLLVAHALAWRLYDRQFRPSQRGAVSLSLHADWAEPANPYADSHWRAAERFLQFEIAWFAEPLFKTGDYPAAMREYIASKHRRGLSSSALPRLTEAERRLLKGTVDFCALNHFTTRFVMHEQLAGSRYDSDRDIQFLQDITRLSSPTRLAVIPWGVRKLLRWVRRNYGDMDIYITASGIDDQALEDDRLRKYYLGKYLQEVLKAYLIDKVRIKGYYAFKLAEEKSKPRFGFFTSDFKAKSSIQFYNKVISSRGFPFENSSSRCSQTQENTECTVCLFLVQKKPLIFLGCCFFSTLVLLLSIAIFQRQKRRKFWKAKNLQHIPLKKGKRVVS
Wherever Mean E max, Luciferase reporter gene assay is given: reference of the scale not given here.

Sequence of human FGFR1c + KLB receptor complex on HEK293 iLite FGF21 reporter cells (P11362 22-822, chain 1 of 2): as the sequence (P11362 22-822, chain 1 of 2) above
Sequence of human FGFR1c + KLB receptor complex on HEK293 iLite FGF21 reporter cells (Q86Z14 whole entry, chain 2 of 2): as the sequence (Q86Z14 whole entry, chain 2 of 2) above

B1: Ab0347 (antibody, IgG4, V domains shown)
VH: QVTLKESGPVLVKPTETLTLTCTVSGFSLNNARVGVSWIRQPPGKALEWLAHIFSNDEKSYSTSLKSRLTISKDTSKSQVVLTMTNMDPVDTATYYCARSVVTGGYYYEGMDVWGQGTTVTVSS
VL: SYVLTQPPSVSVAPGQTARITCGGSNIGSESVHWYQQKPGQAPVLVVYASSDRPSGIPERFSGSNSGNTATLTISRVEAGDEADYYCQVWAGSSDHVVFGGGTKLTVLG
A word on the EC50: it is the concentration that produces a half-maximal response. A word on the Emax: it is the maximal effect, on the per cent scale that the assay sets. Consider B1, for which, in assay [1], the EC50 was determined as 0.24 nM and the Emax is 695%.

B2: 16H7 light chain variant D95V (antibody, IgG4, V domains shown)
VH: not shown
VL: B1 VL with S25N, A49D, S50D, A91D, S93N, D95V
Regarding B2, the “Mean E max, Luciferase reporter gene assay” value (“Mean E max” for short) in assay [2] worked out at 3%.

B3: Ab0423 (antibody, IgG4, V domains shown)
VH: B1 VH
VL: B1 VL with A49S, A91E, S93A
With B3, in assay [1], the EC50 came out at 0.05 nM and the maximal response (Emax) came out at 1510%.

B4: 16H7 light chain variant H33W (antibody, IgG4, V domains shown)
VH: not shown
VL: B1 VL with S25N, H33W, A49D, S50D, A91D, S93N
Take B4: in assay [2], the “Mean E max” value amounted to 80% and the “Mean EC50, Luciferase reporter gene assay” value (“Mean EC50” below) was 0.666 nM.

B5: Ab0348 (antibody, IgG4, V domains shown)
VH: B1 VH
VL: B1 VL with A49E, S50E, A91T, S93E
In the case of B5, in assay [1], the EC50 was 0.53 nM and the maximal response (Emax) worked out at 641%.

B6: Ab0459 (antibody, IgG4, V domains shown)
VH: B1 VH with N30S, N31Y
VL: B1 VL with A49S, S50A, A91E, S93E
For the molecule B6, in assay [1], the EC50 was determined as 0.04 nM and the Emax came to 1110%.

B7: Ab0464 (antibody, IgG4, V domains shown)
VH: B1 VH with N30T, N31Y
VL: B1 VL with A49E, S50E, A91E, S93E
Consider B7, for which, in assay [1], the concentration for a half-maximal effect (EC50) amounted to 0.02 nM and the Emax stood at 910%.

B8: 16H7 light chain variant D95G (antibody, IgG4, V domains shown)
VH: not shown
VL: B1 VL with S25N, A49D, S50D, A91D, S93N, D95G
Take B8: in assay [2], the “Mean E max” value came to 47% and the “Mean EC50” value was 6.56 nM.

B9: Ab0356 (antibody, IgG4, V domains shown)
VH: B1 VH
VL: B1 VL with A49E, S50A
Regarding B9, in assay [1], the 50% effective concentration (EC50) is 5.35 nM and the maximum response (Emax) is 620%.

B10: Ab0365 (antibody, IgG4, V domains shown)
VH: B1 VH
VL: B1 VL with S25A, A49T, S50E
As to B10, in assay [1], the concentration giving a half-maximal response (EC50) was found to be 0.85 nM and the Emax came to 583%.

B11: 16H7 light chain variant D95R (antibody, IgG4, V domains shown)
VH: not shown
VL: B1 VL with S25N, A49D, S50D, A91D, S93N, D95R
On to B11, for which the “Mean E max” value in assay [2] amounted to 4%.

B12: Ab0462 (antibody, IgG4, V domains shown)
VH: B1 VH with N30T
VL: B1 VL with A49E, S50E, A91E, S93E
In the case of B12, in assay [1], the EC50 was found to be 0.03 nM and the maximal response (Emax) came out at 1340%.

B13: 16H7 light chain variant H33P (antibody, IgG4, V domains shown)
VH: not shown
VL: B1 VL with S25N, H33P, A49D, S50D, A91D, S93N
For the molecule B13, in assay [2], the “Mean E max” value came to 90% and the “Mean EC50” value came out at 0.253 nM.

B14: Ab0362 (antibody, IgG4, V domains shown)
VH: B1 VH
VL: B1 VL with A49T, S50E
With B14, in assay [1], the EC50 came out at 11.6 nM and the Emax worked out at 662%.

B15: 16H7 light chain variant H33R (antibody, IgG4, V domains shown)
VH: not shown
VL: B1 VL with S25N, H33R, A49D, S50D, A91D, S93N
Consider B15, for which, in assay [2], the “Mean E max” value amounted to 68% and the “Mean EC50” value is 2.19 nM.

B16: Ab0349 (antibody, IgG4, V domains shown)
VH: B1 VH
VL: B1 VL with A49E, S50E, A91T
Consider B16, for which, in assay [1], the EC50 turned out to be 10.7 nM and the maximum response (Emax) was 511%.

B17: Ab0461 (antibody, IgG4, V domains shown)
VH: B1 VH with N30S
VL: B1 VL with A49E, S50E, A91E, S93E
With B17, in assay [1], the EC50 stood at 0.02 nM and the maximum response (Emax) is 1390%.

B18: Ab0456 (antibody, IgG4, V domains shown)
VH: B1 VH with N30T, N31Y
VL: B1 VL with A49S, S50E, A91E, S93E
Regarding B18, in assay [1], the EC50 worked out at 0.07 nM and the Emax came to 1080%.

B19: 16H7 light chain variant D95C (antibody, IgG4, V domains shown)
VH: not shown
VL: B1 VL with S25N, A49D, S50D, A91D, S93N, D95C
Regarding B19, the “Mean E max” value in assay [2] was found to be 4%.

B20: Ab0454 (antibody, IgG4, V domains shown)
VH: B1 VH with N30T
VL: B1 VL with A49S, S50E, A91E, S93E
Regarding B20, in assay [1], the concentration giving a half-maximal response (EC50) turned out to be 0.03 nM and the maximal response (Emax) is 1390%.

B21: Ab0463 (antibody, IgG4, V domains shown)
VH: B1 VH with N30S, N31Y
VL: B1 VL with A49E, S50E, A91E, S93E
Consider B21, for which, in assay [1], the concentration giving a half-maximal response (EC50) stood at 0.05 nM and the Emax is 951%.

B22: Ab0424 (antibody, IgG4, V domains shown)
VH: B1 VH
VL: B1 VL with A49S, A91H, S93A
With B22, in assay [1], the EC50 came out at 0.07 nM and the Emax was determined as 1390%.

B23: 16H7 light chain variant V32P (antibody, IgG4, V domains shown)
VH: not shown
VL: B1 VL with S25N, V32P, A49D, S50D, A91D, S93N
As to B23, in assay [2], the “Mean E max” value came to 85% and the “Mean EC50” value was 0.164 nM.

B24: Ab0453 (antibody, IgG4, V domains shown)
VH: B1 VH with N30S
VL: B1 VL with A49S, S50E, A91E, S93E
With B24, in assay [1], the EC50 amounted to 0.03 nM and the maximum response (Emax) worked out at 1400%.

B25: 16H7 light chain variant D95P (antibody, IgG4, V domains shown)
VH: not shown
VL: B1 VL with S25N, A49D, S50D, A91D, S93N, D95P
Regarding B25, in assay [2], the “Mean E max” value is 4%.

B26: Ab0363 (antibody, IgG4, V domains shown)
VH: B1 VH
VL: B1 VL with S25A, A49S, S50A, S93A
With B26, in assay [1], the EC50 came out at 0.48 nM and the maximum response (Emax) amounted to 736%.

B27: 16H7 light chain variant D95W (antibody, IgG4, V domains shown)
VH: not shown
VL: B1 VL with S25N, A49D, S50D, A91D, S93N, D95W
B27: the “Mean E max” value in assay [2] was 5%.

B28: Ab0455 (antibody, IgG4, V domains shown)
VH: B1 VH with N30S, N31Y
VL: B1 VL with A49S, S50E, A91E, S93E
Take B28: in assay [1], the EC50 came to 0.07 nM and the Emax amounted to 1020%.

B29: Ab0457 (antibody, IgG4, V domains shown)
VH: B1 VH with N30S
VL: B1 VL with A49S, S50A, A91E, S93E
Take B29: in assay [1], the half-maximal effective concentration (EC50) turned out to be 0.02 nM and the Emax came out at 1520%.

B30: Ab0460 (antibody, IgG4, V domains shown)
VH: B1 VH with N30T, N31Y
VL: B1 VL with A49S, S50A, A91E, S93E
Consider B30, for which, in assay [1], the EC50 worked out at 0.05 nM and the Emax was 1050%.

B31: Ab0359 (antibody, IgG4, V domains shown)
VH: B1 VH
VL: B1 VL with A49E, S50H
Consider B31, for which, in assay [1], the EC50 worked out at 2.53 nM and the maximal response (Emax) turned out to be 550%.

B32: Ab0458 (antibody, IgG4, V domains shown)
VH: B1 VH with N30T
VL: B1 VL with A49S, S50A, A91E, S93E
Consider B32, for which, in assay [1], the 50% effective concentration (EC50) amounted to 0.02 nM and the maximal response (Emax) is 1430%.

B33: 16H7 light chain variant D49A (antibody, IgG4, V domains shown)
VH: not shown
VL: B1 VL with S25N, S50D, A91D, S93N
As to B33, in assay [2], the “Mean E max” value stood at 100% and the “Mean EC50” value was determined as 0.106 nM.

B34: 16H7 light chain variant D50K (antibody, IgG4, V domains shown)
VH: not shown
VL: B1 VL with S25N, A49D, S50K, A91D, S93N
Consider B34, for which the “Mean E max” value in assay [2] stood at 109%.

B35: 16H7 light chain variant S94K (antibody, IgG4, V domains shown)
VH: not shown
VL: B1 VL with S25N, A49D, S50D, A91D, S93N, S94K
For the molecule B35, in assay [2], the “Mean E max” value was found to be 104% and the “Mean EC50” value turned out to be 0.185 nM.

B36: 16H7 light chain variant D95S (antibody, IgG4, V domains shown)
VH: not shown
VL: B1 VL with S25N, A49D, S50D, A91D, S93N, D95S
As to B36, the “Mean E max” value in assay [2] was 37%.

B37: Ab0428 (antibody, human IgG1, lambda)
heavy: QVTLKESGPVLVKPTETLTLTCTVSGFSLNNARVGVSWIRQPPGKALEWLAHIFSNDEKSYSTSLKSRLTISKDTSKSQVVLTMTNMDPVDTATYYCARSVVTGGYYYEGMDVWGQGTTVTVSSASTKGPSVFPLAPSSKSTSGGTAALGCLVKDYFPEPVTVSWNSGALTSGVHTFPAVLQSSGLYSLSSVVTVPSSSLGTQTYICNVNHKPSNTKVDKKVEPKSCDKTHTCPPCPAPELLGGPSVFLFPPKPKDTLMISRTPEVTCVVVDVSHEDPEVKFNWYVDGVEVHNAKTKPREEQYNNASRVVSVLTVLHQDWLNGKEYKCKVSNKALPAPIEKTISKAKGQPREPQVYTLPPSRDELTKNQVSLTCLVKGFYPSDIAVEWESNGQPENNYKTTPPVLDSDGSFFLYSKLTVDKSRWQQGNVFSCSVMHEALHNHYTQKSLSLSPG
light: SYVLTQPPSVSVAPGQTARITCGGSNIGSESVHWYQQKPGQAPVLVVYSESDRPSGIPERFSGSNSGNTATLTISRVEAGDEADYYCQVWEGESDHVVFGGGTKLTVLGQPKANPTVTLFPPSSEELQANKATLVCLISDFYPGAVTVAWKADGSPVKAGVETTKPSKQSNNKYAASSYLSLTPEQWKSHRSYSCQVTHEGSTVEKTVAPTECS
In the case of B37, in assay [1], the EC50 was 0.03 nM and the maximal effect (Emax) was found to be 1280%.

B38: Ab0430 (antibody, human IgG1, lambda)
heavy: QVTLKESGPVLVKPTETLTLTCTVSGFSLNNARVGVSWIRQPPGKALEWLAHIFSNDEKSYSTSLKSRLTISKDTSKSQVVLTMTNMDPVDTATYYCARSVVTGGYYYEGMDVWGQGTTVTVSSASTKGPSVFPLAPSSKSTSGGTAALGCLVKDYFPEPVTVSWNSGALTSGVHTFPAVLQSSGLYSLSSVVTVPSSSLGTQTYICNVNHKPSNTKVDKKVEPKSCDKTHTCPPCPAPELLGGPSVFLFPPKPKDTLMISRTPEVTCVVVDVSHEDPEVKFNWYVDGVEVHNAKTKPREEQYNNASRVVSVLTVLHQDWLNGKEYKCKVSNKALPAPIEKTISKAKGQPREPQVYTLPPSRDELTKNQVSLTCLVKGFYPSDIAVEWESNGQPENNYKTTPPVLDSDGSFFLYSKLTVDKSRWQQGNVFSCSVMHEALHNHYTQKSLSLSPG
light: B37 light with S49E
Consider B38, for which, in assay [1], the concentration for a half-maximal effect (EC50) was 0.03 nM and the Emax is 1100%.

B39: Ab0429 (antibody, human IgG1, lambda)
heavy: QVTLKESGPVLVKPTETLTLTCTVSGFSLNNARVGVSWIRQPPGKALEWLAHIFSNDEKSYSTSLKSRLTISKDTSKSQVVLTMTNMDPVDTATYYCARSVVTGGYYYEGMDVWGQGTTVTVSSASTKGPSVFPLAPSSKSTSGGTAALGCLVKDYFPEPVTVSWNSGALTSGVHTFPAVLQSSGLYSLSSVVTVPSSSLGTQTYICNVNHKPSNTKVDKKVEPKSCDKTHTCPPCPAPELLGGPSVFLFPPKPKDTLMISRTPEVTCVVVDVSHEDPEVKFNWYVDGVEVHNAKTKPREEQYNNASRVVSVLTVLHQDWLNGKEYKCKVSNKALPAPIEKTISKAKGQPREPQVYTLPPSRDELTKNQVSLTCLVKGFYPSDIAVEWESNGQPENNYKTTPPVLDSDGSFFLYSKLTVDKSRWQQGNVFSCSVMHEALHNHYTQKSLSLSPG
light: B37 light with E50A
With B39, in assay [1], the 50% effective concentration (EC50) amounted to 0.04 nM and the maximal response (Emax) was 1290%.
